Data on two molecules can be found in article PMC6006506.

No end group written: not given here. OP = not defined here

The target of the assay is monoclonal antibody depY (mouse). Description: SPR.

On to LYGLPR-{OP} (reading uncertain; also: printed as LYGLPR-OP) [LYGLPR-OP], for which the Kd (in general, the free concentration of one partner at which half of the binding sites on the other are occupied at equilibrium, for simple one-to-one binding) is 12 nM.
Consider PPYRM-{OP} (reading uncertain; also: printed as PPYRM-OP) [PPYRM-OP], for which the Kd was 360 nM.
